Measurements published in patent US20200131274A1 (CRESCENDO BIOLOGICS, published 2020).
Positions count from the first letter of the chain named. Names may count otherwise.

B1: 1.18-6GS-2.22 (bispecific antibody)
chain: EVQLLESGGGLVQPGGSLRLSCAASGFSFSSYALSWVRQAPGKGLEWVSSIGENNATTDYAASVKGRFTISRDNSKNTLYLQMNSLRVEDTAVYYCVKDGVHWGQGTLVTVSSGGGGSGGGGSGGGGSGGGGSGGGGSGGGGSEVQLVESGGGVVQPGRSLRLSCAASGFSFSGYGTHWVRQAPGKGLEWVAYISYDGSNKYYAAPVKGRFTISRDNSKNTLYLQMNSLRAEDTAVYYCAKDAAWGLRLGESSSYDFDIWGQGTMVTVSS
notes: linker (G4S)6
B2: 1.16-6GS-2.22 (bispecific antibody)
chain: B1 chain with A56H, A62D, S63T
notes: linker (G4S)6
B3: 1.11-6GS-2.22 (bispecific antibody)
chain: B1 chain with A56D, A62D, S63N
notes: linker (G4S)6; also called 1.11-2.22; 1.11-6GS-2.22His
B4: single VH domain antibody 2.12 (VHH)
VHH: EVQLVESGGGVVQPGRSLRLSCAASGFSFSGYGMHWVRQAPGKGLEWVAYISYDKSNKYYADKVKGRFTISRDNSKNTLYLQMNSLRAEDTAVYYCAKDPAWGLRLGESSSYDFDIWGQGTMVTVSS
notes: Human single VH domain antibody (Humabody); C-terminal His tag, residues not tied
B5: single VH domain antibody 2.13 (VHH)
VHH: B4 VHH with M34L, K55A, K63N
notes: as for B4
B6: HiPEG A-His6 val-cit-PAB-MMAE (VHH)
VHH: B4 VHH with K55G, K63S
modifications: HiPEG val-cit-PAB-MMAE attached via the C-terminal His6-tag, DAR 1
B7: HiPEG B-His6 val-cit-PAB-MMAE (VHH)
VHH: EVQLLESGGGLVQPGGSLRLSCAASGFSFSSYAMSWVRQAPGKGLEWVSSIGENDGTTDYADSVKGRFTISRDNSKSMLYLQMNSLRVEDTAVYYCVKDGVHWGQGTLVTVSS
modifications: HiPEG val-cit-PAB-MMAE attached via the C-terminal His6-tag, DAR 0.9
B8: HiPEG B-1-A-His6 val-cit-PAB-MMAE (bispecific antibody)
chain: EVQLLESGGGLVQPGGSLRLSCAASGFSFSSYAMSWVRQAPGKGLEWVSSIGENDGTTDYADSVKGRFTISRDNSKSMLYLQMNSLRVEDTAVYYCVKDGVHWGQGTLVTVSSGGGGSGGGGSEVQLVESGGGVVQPGRSLRLSCAASGFSFSGYGMHWVRQAPGKGLEWVAYISYDGSNKYYADSVKGRFTISRDNSKNTLYLQMNSLRAEDTAVYYCAKDPAWGLRLGESSSYDFDIWGQGTMVTVSS
modifications: HiPEG val-cit-PAB-MMAE attached via the C-terminal His6-tag, DAR 1
B9: HiPEG B-2-A-His6 val-cit-PAB-MMAE (bispecific antibody)
chain: B1 chain with L34M, N55D, A56G, A62D, N77S, T78M, T177M, A205D, P206S, A243P
modifications: HiPEG val-cit-PAB-MMAE attached via the C-terminal His6-tag, DAR 1
B10: HiPEG D-His6 val-cit-PAB-MMAE (VHH)
VHH: EVQLLESGGGLVQPGGSLRLSCAASGFRISDEDMGWVRQAPGKGLEWVSSIYGPSGSTYYADSVKGRFTISRDNSKNTLYLQMNSLRAEDTAVYYCASALEPLSEPLGFWGQGTLVTVSS
modifications: HiPEG val-cit-PAB-MMAE attached via the C-terminal His6-tag

Each binder was assayed against cynomolgus PSMA, full-length, on CHO cells (cynomolgus, UniProt A0A2K5VNZ0 1-750) (assay: cell-based or functional assay).

| Binder | His-ZAP cell killing, cyno PSMA Average EC50 | His-ZAP cell killing, cyno PSMA EC50 |
| --- | --- | --- |
| B1 | 0.014 nM |  |
| B2 | 0.011 nM |  |
| B3 | 0.0095 nM |  |
| B4 |  | 0.091 nM |
| B5 |  | 0.08 nM |

What follows are binders tested against T1, human prostate specific membrane antigen (PSMA), full-length, on cells (human, UniProt Q04609 1-750) (assay: cell-based or functional assay).
T1 sequence (Q04609 whole entry): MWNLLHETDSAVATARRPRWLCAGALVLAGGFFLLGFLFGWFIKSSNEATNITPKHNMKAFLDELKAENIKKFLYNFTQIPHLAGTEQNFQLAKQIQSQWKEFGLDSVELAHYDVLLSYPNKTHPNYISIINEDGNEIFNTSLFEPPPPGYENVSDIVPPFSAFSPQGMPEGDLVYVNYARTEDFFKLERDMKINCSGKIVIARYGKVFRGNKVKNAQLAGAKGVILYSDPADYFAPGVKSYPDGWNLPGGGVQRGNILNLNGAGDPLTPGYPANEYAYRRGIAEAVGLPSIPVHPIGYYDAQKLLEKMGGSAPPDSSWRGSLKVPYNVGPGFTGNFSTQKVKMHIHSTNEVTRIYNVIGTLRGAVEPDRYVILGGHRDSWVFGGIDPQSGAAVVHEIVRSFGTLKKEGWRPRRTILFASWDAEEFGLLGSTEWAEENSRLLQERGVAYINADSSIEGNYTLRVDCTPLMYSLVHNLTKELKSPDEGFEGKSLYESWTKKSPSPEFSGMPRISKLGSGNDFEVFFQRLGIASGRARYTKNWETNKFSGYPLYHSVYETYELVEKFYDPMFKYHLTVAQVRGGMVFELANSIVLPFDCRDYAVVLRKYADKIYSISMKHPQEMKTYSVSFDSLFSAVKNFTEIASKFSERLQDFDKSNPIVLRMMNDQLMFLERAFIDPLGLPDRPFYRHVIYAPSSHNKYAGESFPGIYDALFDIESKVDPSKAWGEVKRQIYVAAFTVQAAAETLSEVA

| Binder | His-ZAP cell killing, human PSMA Average EC50 |
| --- | --- |
| B1 | 0.015 nM |
| B2 | 0.02 nM |
| B3 | 0.01 nM |
| B4 | 0.016 nM |
| B5 | 0.027 nM |

These binders were tested against T2, recombinant human PSMA (R&D, cat. no. 4234-ZN) (human, UniProt Q04609 44-750) (assay: Octet RED384 BLI, PSMA on sensor, VH series from 0.375 ug/ml).
T2 construct: Bought protein; also called rhPSMA; Recombinant PMSA
T2 sequence (Q04609 44-750 limits assumed): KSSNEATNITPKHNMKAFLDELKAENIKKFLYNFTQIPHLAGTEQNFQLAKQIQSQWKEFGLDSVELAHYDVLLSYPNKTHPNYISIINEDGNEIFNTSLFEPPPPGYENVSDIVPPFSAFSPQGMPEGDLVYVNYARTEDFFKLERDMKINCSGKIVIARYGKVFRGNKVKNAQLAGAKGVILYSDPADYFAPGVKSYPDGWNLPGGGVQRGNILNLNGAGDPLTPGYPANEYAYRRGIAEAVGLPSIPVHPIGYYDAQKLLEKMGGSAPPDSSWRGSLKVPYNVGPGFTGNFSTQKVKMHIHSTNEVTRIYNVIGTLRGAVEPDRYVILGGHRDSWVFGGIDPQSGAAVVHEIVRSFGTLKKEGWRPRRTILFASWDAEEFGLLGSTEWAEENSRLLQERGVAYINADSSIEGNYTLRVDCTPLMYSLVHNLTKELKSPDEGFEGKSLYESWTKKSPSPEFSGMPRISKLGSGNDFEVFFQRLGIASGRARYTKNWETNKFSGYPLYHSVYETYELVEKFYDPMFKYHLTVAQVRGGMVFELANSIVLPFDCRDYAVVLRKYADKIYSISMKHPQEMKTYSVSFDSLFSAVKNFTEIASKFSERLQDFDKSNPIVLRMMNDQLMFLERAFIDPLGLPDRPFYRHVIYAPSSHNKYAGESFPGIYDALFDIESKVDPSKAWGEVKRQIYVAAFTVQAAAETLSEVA

| Binder | Kd | koff |
| --- | --- | --- |
| B4 | 1.56 nM | 0.00157 s⁻¹ |
| B5 | 0.99 nM | 0.000743 s⁻¹ |

What follows are binders tested against T1, human prostate specific membrane … (assay: FMAT direct cell binding, human PSMA-CHO cells).

| Binder | EC50 |
| --- | --- |
| B1 | 0.196 nM |
| B2 | 0.225 nM |
| B3 | 0.219 nM |

Target: T1, human prostate specific membrane …
Test: cell-based or functional assay
Remark: another data set of the same source

| Binder | IC50 (nM), cytotoxicity on DU145 PSMA cells, 72 h | IC50 (toxin) nM, DU145 PSMA cells, 72 h |
| --- | --- | --- |
| B6 | 0.55 nM | 0.55 nM |
| B7 | 4.1 nM | 3.69 nM |
| B8 | 0.1 nM | 0.1 nM |

Target: T1, human prostate specific membrane …
Test: cell-based or functional assay
Remark: another data set of the same source

| Binder | IC50 (nM), PSMA-DU145 cytotoxicity assay (72 h) | IC50 (toxin) (nM), PSMA-DU145 cytotoxicity assay (72 h) |
| --- | --- | --- |
| B9 | 0.27 nM | 0.27 nM |
| B10 | > 100 nM | > 100 nM |

Target: T1, human prostate specific membrane …
Test: cell-based or functional assay
Remark: another data set of the same source

| Binder | pHrodo Green internalization assay, human PSMA Average EC50 (M) |
| --- | --- |
| B4 | 5.3e-10 M |
| B5 | 5.8e-10 M |

Target: T1, human prostate specific membrane …
Test: cell-based or functional assay
Remark: another data set of the same source

| Binder | IC50 Toxin (nM), DU145 PSMA cells, 48 h | Mean IC50, cytotoxicity on DU145 PSMA cells, 48 h | Mean Max % Cell kill, DU145 PSMA cells, 48 h |
| --- | --- | --- | --- |
| B9 | 0.15 nM | 0.15 nM | 79% |
| B6 | 1.16 nM | 1.2 nM | 74% |
| B10 |  | > 300 nM |  |
| B7 | 2.43 nM | 2.7 nM | 73% |
| B8 | 0.13 nM | 0.13 nM | 79% |
